PMC6461802, “Coupling of ssRNA cleavage with DNase activity in type III-A CRISPR-Csm revealed by cryo-EM and biochemistry” (Cell Research, 2019)
Where “and” joins values, the source holds several entries; their conditions need not be identical. Equal entries are not always repeated.

T1: Cas10 (Csm1);Csm2;Csm3;Csm4 (Streptococcus thermophilus …, UniProt A0A0A7HFE1;A0A0A7HIX1;A0A0A7HIF0;A0A0A7HGA1 1-758;1-121;1-220;1-299, |||)
T1 sequence 1: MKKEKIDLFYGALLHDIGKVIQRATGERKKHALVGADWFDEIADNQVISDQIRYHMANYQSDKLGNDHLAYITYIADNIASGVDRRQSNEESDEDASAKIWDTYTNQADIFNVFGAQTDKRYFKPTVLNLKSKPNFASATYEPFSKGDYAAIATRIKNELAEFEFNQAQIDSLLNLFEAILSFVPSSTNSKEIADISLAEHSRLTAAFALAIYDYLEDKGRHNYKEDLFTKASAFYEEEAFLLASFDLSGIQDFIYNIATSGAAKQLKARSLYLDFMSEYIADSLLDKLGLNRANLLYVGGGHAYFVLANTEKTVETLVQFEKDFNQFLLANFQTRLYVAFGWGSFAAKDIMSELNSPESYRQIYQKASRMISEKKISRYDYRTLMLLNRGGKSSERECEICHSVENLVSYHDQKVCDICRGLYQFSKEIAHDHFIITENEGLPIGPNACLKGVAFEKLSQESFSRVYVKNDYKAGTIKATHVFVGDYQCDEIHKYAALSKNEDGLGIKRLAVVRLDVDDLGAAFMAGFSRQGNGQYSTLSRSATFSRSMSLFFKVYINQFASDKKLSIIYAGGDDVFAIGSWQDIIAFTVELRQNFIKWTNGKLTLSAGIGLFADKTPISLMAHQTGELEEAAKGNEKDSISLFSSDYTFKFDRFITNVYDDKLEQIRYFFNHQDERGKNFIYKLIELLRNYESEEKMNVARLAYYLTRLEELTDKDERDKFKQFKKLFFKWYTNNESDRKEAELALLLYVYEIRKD
T1 sequence 2: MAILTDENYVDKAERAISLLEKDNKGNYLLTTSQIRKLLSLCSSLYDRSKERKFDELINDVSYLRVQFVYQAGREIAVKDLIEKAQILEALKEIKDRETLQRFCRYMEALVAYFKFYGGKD
T1 sequence 3: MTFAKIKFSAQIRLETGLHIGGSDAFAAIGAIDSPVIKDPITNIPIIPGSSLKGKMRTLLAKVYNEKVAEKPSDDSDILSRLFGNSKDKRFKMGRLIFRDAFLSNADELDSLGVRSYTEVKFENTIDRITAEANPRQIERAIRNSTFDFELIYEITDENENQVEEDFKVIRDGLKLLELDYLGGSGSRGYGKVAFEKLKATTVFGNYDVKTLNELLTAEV
T1 sequence 4: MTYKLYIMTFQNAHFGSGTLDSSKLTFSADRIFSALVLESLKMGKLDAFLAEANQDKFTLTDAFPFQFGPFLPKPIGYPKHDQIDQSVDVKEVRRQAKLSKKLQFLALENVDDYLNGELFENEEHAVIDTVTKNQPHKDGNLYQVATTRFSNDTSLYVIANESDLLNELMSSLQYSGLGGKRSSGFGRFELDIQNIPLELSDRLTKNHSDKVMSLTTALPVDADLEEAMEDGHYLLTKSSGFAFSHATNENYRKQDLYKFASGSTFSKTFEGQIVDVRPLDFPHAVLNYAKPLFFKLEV

B1: Csm2 of the Streptococcus thermophilus type III-A Csm complex (natural protein, Streptococcus thermophilus DGCC8004)
chain: MAILTDENYVDKAERAISLLEKDNKGNYLLTTSQIRKLLSLCSSLYDRSKERKFDELINDVSYLRVQFVYQAGREIAVKDLIEKAQILEALKEIKDRETLQRFCRYMEALVAYFKFYGGKD
notes: Csm2, Streptococcus thermophilus DGCC8004; csm2 is present both on the untagged gene cassette and on the His-tag plasmid, so the 3 or 5 copies in the complex may be a mix of tagged and untagged chains; No tag removal is described; also called Csm2a; Csm2b
B2: Csm3 of the Streptococcus thermophilus type III-A Csm complex (wild type, apo state) (natural protein, Streptococcus thermophilus DGCC8004)
chain: MTFAKIKFSAQIRLETGLHIGGSDAFAAIGAIDSPVIKDPITNIPIIPGSSLKGKMRTLLAKVYNEKVAEKPSDDSDILSRLFGNSKDKRFKMGRLIFRDAFLSNADELDSLGVRSYTEVKFENTIDRITAEANPRQIERAIRNSTFDFELIYEITDENENQVEEDFKVIRDGLKLLELDYLGGSGSRGYGKVAFEKLKATTVFGNYDVKTLNELLTAEV
notes: Csm3, Streptococcus thermophilus DGCC8004; also called Csm3a
B3: Csm3 D33A of the Streptococcus thermophilus type III-A Csm complex (target ssRNA-bound state) (natural protein, Streptococcus thermophilus DGCC8004)
chain: MTFAKIKFSAQIRLETGLHIGGSDAFAAIGAIASPVIKDPITNIPIIPGSSLKGKMRTLLAKVYNEKVAEKPSDDSDILSRLFGNSKDKRFKMGRLIFRDAFLSNADELDSLGVRSYTEVKFENTIDRITAEANPRQIERAIRNSTFDFELIYEITDENENQVEEDFKVIRDGLKLLELDYLGGSGSRGYGKVAFEKLKATTVFGNYDVKTLNELLTAEV
notes: Csm3, Streptococcus thermophilus DGCC8004, with D33A to eliminate ssRNA cleavage

What was measured:
[1] = biological target: the molecule itself; test: cryo-EM structure; apo state: StCsm complex with 40 nt crRNA, wild-type Csm3; big (3.4 Å) and small (3.3 Å) particle populations; ~0.4 mg/mL, buffer 10 mM Tris-HCl pH 8.0, 150 mM NaCl, 3 mM DTT
[2] = biological target: the molecule itself; test: cryo-EM structure; target ssRNA-bound state: StCsm complex with 40 nt crRNA and 49 nt target ssRNA, Csm3 D33A; big (3.4 Å) and small (3.5 Å) particle populations; ~0.4 mg/mL, buffer 10 mM Tris-HCl pH 8.0, 150 mM NaCl, 3 mM DTT
[3] = biological target: T1, Cas10 (Csm1);Csm2;Csm3;Csm4; test: cryo-EM; small conformation, 3.3 A; endogenous ATP in Cas10; Cryo-EM: complex ~0.4 mg/mL, purified in 10 mM Tris-HCl pH 8.0, 150 mM NaCl, 3 mM DTT; grids blotted at 4 C; ternary reconstitution conditions not given; conditions: protein: recombinant;recombinant;recombinant;recombinant; tags: ;His (N-terminal, pET-28a);;; copies: 1;3;5;1; single strand, 1 copy

Binder | stoichiometry N [1] | other results
B1 | 5 and 3 | 
B2 | 7 and 5 | 
B3 |  | stoichiometry N [2]: 7 and 5
ACGGAAACUUUCGUAACUGUUUAAUUCUGUUCACUUAUUC (ssRNA) [40 nt crRNA] |  | binding result [3]: binds
